Literature values, collected in paper PMC10347550, “Cyclic Ruthenium-Peptide Conjugates as Integrin-Targeting Phototherapeutic Prodrugs for the Treatment of Brain Tumors” (Journal of the American Chemical Society, 2023).

Target: fibrinogen (Homo sapiens) (UniProt P02671)
Sequence (P02671 36-866, chain 1 of 3): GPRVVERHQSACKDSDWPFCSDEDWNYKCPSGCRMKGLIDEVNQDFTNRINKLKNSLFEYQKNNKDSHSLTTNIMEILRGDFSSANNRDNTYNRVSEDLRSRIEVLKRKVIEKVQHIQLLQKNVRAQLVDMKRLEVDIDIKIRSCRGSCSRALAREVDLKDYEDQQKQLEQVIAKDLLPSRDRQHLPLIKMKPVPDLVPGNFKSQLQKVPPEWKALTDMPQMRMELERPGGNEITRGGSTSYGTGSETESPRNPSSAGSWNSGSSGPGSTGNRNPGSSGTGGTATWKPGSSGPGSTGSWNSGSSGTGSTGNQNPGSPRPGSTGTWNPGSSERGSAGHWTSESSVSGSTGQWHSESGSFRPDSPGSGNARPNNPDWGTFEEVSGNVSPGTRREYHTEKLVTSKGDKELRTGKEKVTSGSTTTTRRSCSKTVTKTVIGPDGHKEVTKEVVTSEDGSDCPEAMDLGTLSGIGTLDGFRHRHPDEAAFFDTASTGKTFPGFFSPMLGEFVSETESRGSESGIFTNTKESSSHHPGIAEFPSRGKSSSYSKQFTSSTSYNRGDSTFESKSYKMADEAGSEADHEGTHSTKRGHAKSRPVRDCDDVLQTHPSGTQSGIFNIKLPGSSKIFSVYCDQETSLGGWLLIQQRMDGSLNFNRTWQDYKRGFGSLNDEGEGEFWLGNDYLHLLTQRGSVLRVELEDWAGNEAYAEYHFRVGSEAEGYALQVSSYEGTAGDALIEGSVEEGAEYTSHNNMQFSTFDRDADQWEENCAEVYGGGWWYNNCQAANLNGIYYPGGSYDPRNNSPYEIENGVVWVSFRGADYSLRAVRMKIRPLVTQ
Sequence (P02675 45-491, chain 2 of 3, further chain): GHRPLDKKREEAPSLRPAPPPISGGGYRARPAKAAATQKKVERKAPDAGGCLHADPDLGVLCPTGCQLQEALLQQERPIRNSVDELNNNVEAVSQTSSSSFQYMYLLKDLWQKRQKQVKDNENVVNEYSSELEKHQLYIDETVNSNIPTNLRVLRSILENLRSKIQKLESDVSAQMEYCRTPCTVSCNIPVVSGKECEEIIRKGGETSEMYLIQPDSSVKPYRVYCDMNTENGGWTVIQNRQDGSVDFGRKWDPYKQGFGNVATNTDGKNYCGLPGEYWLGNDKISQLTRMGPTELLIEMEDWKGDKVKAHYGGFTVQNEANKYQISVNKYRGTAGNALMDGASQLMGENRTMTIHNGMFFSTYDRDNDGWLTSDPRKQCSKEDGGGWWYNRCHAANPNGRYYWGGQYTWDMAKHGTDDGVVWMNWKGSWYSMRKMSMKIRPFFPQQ
Sequence (P02679 27-453, chain 3 of 3, further chain): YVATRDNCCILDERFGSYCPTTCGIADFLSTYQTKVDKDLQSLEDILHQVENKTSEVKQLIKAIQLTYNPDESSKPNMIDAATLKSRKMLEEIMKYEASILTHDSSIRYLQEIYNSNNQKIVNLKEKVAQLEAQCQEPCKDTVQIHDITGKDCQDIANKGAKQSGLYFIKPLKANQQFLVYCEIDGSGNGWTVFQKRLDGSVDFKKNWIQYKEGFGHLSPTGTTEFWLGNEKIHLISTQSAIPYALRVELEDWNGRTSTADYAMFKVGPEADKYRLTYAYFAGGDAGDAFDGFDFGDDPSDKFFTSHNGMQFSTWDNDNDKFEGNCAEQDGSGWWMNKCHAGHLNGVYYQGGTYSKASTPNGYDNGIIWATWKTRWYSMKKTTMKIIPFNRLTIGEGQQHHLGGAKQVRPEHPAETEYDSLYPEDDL

integrin αIIbβ3 (from UniProt P08514)
Kd: 30 nM
